{"source": "the DeepSol protein solubility set", "data": [{"experiment": "soluble on expression in E. coli; label from the status in PepcDB or PDB records", "values": [{"sequence": "MINVSDLTQKLPEGSNAGVIAKNINQNQIIADYNGSTFMLPASTQKVFTAVAAKLALGDQFQFETALLSNGKIQNGNLDGNLIVSFTGDPDLTRGQLYSLLAELKKQGIKKINGDLVLDTSVFSSHDRGLGWIWNDLTMCFNSPPAAANIDNNCFYAELDANKNPGEIVKINVPAQFPIQVFGQVYVADSNEAPYCQLDVVVHDNNRYQVKGCLARQYKPFGLSFAVQNTDAYAAAIIQRQLRKLGIEFNGKVLLPQKPQQGQLLAKHLSKPLPDLLKKMMKKSDNQIADSLFRAVAFNYYKRPASFQLGTLAVKSILQKQGIRFGNSILADGSGLSRHNLVAPKTMLSVLEYIAKNEDKLHLMETFPIAGVDGTISGRGGLISPPLVKNVIAKTGSLKGVYNLAGFMTNARGEKVAFVQFINGYSTGDLESKTKRAPLVQFERNLYNELYKY", "soluble on expression in E. coli": "soluble"}, {"sequence": "MIPITPTIALDDAEIEERFIRSSGPGGQNVNKVSTAVQLRFDVAGSPNLPGWVKHRLSVLAGSRLTGEGVLVLTAQSQRTQEANRREAVERLVALIQAACHRDKPRRPTRPTKGSQTRRMDGKTLRGAIKKGRQSKPSLDLEHHHHHH", "soluble on expression in E. coli": "soluble"}, {"sequence": "MIPLMHDFEGETVLVVGGGSVGARKARTFATEASVVVLSPEFGDRTFADAEKVRAAPTPEDATDWVERTDPALVVAATDDSDLNGAFSTAAAEHGALVNRTDDHGDQSFGNIVVPATVRDDPVTLAIATGGRAPALSKHLRERFEDEFGNAGLMADLVGDLREDLRDRGVPPAKRRDAVRFVVRSREVWKALDSGRSKGEQVARDVIGELPGDQT", "soluble on expression in E. coli": "not soluble"}, {"sequence": "MIPMNVTFEHDFQTMRESFFENAQEAFAILDKDLNFIDINKSFTESLKTGRDKLIGKNIIEFNSSIKNTERFRLYQKVLQTGESIILDDIRLHPNLGSYTIRVSCFKVGEGIGLAILNITDLRDAIDDLETFIYKCSHDMRTPVSNIYGLIQLALEDTKDPHTVEFLNMIKHQTDRLDHIIHQLANTSRLMHDNKIIYLVDLKTVVSDVIDSFSKIPDFEAIKFTVTSSSKEKFFSDKSLLICILENIIDNAIKYRNHDIQSLIDINMSDEKSGVRITIKDNGIGIDDDIQKNVFKMFYRGTNKSSGSGLGLYTVKHFIKKLKGEISLTSEKNTGTTFSFYIPNVNTDK", "soluble on expression in E. coli": "not soluble"}, {"sequence": "MIPRPIPEPSPDLYTEEEVSKLVHEFYAKARKDAALGPIFEEHVIDWDAHFVQMTNFWSAQLRGTSRFRGAPMPKHIALPELNETLFKRWLQLFRQTTLELGNPLLKQHADTVAEFIAGRLWMGYQMSHFPHREPADLNTSEV", "soluble on expression in E. coli": "not soluble"}, {"sequence": "MIQIRPMTPEDFDRFWPTFQAVVVAQETYAYDPALTQEQACDVWLKLPLHTLIAEEDGQLLGSYYLKANAAGPGNHVCNCGYMVTDAALGRGVARLMCEHSQQLARDSGFLAMQFNSVVASNEVAVALWAKLGFETVGRLPKAYRHARLGLVDCLVMFKWLADAPIAAEPVQPKLIGRKNIESVVSRPRRK", "soluble on expression in E. coli": "not soluble"}, {"sequence": "MIQPVAVIGAGPFGLSTAAHLRARGIPVRVFGDPMVSWRDHMPAGMLLKSTPAASTIDAPQRGHRLVDYCDAAGIARLVTDEDIIPVETFIGYGRWFQEQLVPGLEQVRVVSVDRKAGGGFELKLDSGELFTARAVVVATGLSGLAHLPAELAGAAVDGPTPTGPVSHSSQHHDLSRFAGKELVVVGAGQSALETAALAAEAGAHVRVVSRGRGRVSFGAPPWKQPRLRPESPFGRAWSLWALSYYPHPYRYLPAEARHYLVRRVLGPLGAWWLRDRFEGKVEVREVASVARAHASEGSPVLTLRTHGGRTQELPADHVIAATGYRVDIAAMDFLGHELRTELVVSRGTPKLGAGFRSSVPGLYFTGLPAAASYGPVMRFVCGTEFASPRLAKHLAGAHGLEHHHHHH", "soluble on expression in E. coli": "not soluble"}, {"sequence": "MIQRDIEYSGQYSKDVKLAQKRHKDMNKLKYLMTLLINNTLPLPAVYKDHPLQGSWKGYRDAHVEPDWILIYKLTDKLLRFERTGTHAALFGLEHHHHHH", "soluble on expression in E. coli": "soluble"}, {"sequence": "MIQRNSTLAVLRESFVAGSDENLSPIMHHLWKMEGGAIYFCRSGWAHVTIDLKEYEIVKNTQVVLLPGSIIRINGSSSDFTASFFGFPKDMFREACLRLEPTFFRFMKEKPCYVLPDKDTGAINGLIQATTAIYNDRENRFRNQIAKNHLQSFMLDIYDKCYRYFDKQEIEGGSRQDEIFKKFVALVHENCISQREVNFYANELCISTKYLTGICRSVTGDSAKKIIDDFAILEIKVLLQSTELTMQDIADRLGFPDQSYLGRYFKRHEGMSPREYQNRYVI", "soluble on expression in E. coli": "not soluble"}, {"sequence": "MIRQRRRALTPEQQQEMGQQAATRMMTYPPVVMAHTVAVFLSFDGELDTQPLIEQLWRAGKRVYLPVLHPFSAGNLLFLNYHPQSELVMNRLKIHEPKLDVRDVLPLSRLDVLITPLVAFDEYGQRLGMGGGFYDRTLQNWQHYKTQPVGYAHDCQLVEKLPVEEWDIPLPAVVTPSKVWEWMGHHHHHHSH", "soluble on expression in E. coli": "not soluble"}, {"sequence": "MIRVMATGVFDILHLGHIHYLKESKKLGDELVVVVARDSTARNNGKIPIFDENSRLALISELKVVDRAILGHEGDMMKTVIEVKPDIITLGYDQKFDEAELQSKINKLGITVKIVRISKYDGQLNSSSSVRKKIMELIGERY", "soluble on expression in E. coli": "not soluble"}, {"sequence": "MISENYSRNLVGYGRNAPDPKWPGGARIAVQFVINYEEGGESCILDNDKASESLLSEIVGAQPWPGQRNLNMESIYEYGSRAGFWRLWRMFTGLGVTTTVYGVTAAMARNPEAVAAMKEAGWEIASHGYRWLEYKDFSEEEERKHIVEAVHLHTELTGERPYGMYQGKPSDNTLRLVMEEGGFLYSSDSYADDLPYWVKGVGDEPFLIIPYTLDTNDMRFATPQGFNSGDQFFTYLKDAFDVLYQEGVEGAPKMMSIGLHCRLVGRPGRAAALRRFIEYVLGHEKVWIPQRLEIARHWHEHHKPETP", "soluble on expression in E. coli": "not soluble"}, {"sequence": "MISIFDIFKIGIGPSSSHTVGPMKAAAAFAAGLDAQAVRIVIDIYGSLALTGYGHGTFDALMLGLEGSLPHDIPLAGIPERLERIRTQHILRLNGQEIRFIPDRDLNILGNQVLPKHPNSLRFTAYASDGTVLNEQVYYSVGGGFVVTEEDFDR", "soluble on expression in E. coli": "not soluble"}, {"sequence": "MISIKGTGRFLLDNYRIWQRRAFNRPIQLRKGYKVLAIETSCDDTCVSVLDRFSKSAAPNVLANLKDTLDSIDEGGIIPTKAHIHHQARIGPLTERALIESNAREGIDLICVTRGPGMPGSLSGGLDFAKGLAVAWNKPLIGVHHMLGHLLIPRMGTNGKVPQFPFVSLLVSGGHTTFVLSRAIDDHEILCDTIDIAVGDSLDKCGRELGFKGTMIAREMEKFINQDINDQDFALKLEMPSPLKNSASKRNMLSFSFSAFITALRTNLTKLGKTEIQELPEREIRSIAYQVQESVFDHIINKLKHVLKSQPEKFKNVREFVCSGGVSSNQRLRTKLETELGTLNSTSFFNFYYPPMDLCSDNSIMIGWAGIEIWESLRLVSDLDICPIRQWPLNDLLSVDGWRTDQL", "soluble on expression in E. coli": "not soluble"}, {"sequence": "MISSGWMQEMEPIPEEGTEADGSEWGAMSDTAKRTMRKKEVYTSEQINTLVSTVPKEAVPQEWLVENQVVDPEMATSYLTESLAGPTSARGSSYSYSYESHYDNPPEEEYEHFTNDDGVHQMQKVTRVTKVTTTRSVRQVPVQSPYSNIDFDSSGLPTPSPVIDRDPSLEMMARMGGASDHDSEDRSAPPPAPASRFLHEDSGIPSAPGVPDVVDAGIGEVTVVWSAPLQSNGGEVRGYQIEMREFPDGEWESMGVDHLLKDTTCRVTNLTSHEVQFRVSAYGRTGFGPASNPSLPVKIPISETDLATSAGAPLAPGRPTVIAVDGQGVLLEWTPPVADVHSSPPQGYQVEYRVYGSRDWIVANEQLVQENVFTVESLRPNGVYEFRVRGKNQDGLGHPSMSSGGVAIRPAAPQRHVPARKVSESVQPPGQPQMVEVGDDVVKLEWAPSVQNARYIVEYREVGDPEWHTANYDPIVQNGIQVEGLHRNSTYEFCVISIVDNIASQPSETSDIIHLRPTCNTSALRPAPNILEAPEFLEVDGDKITICWLPAQSQLPVMGYDVEFRDLQQDDRWYKVNDQPVFACKMTVGDLIMDHDYQFRVLAHNASGCSQPSPPSDFVHIEPSTNRFSSDTMESPHLGHHDVVKYVEAERFGAVPLLQEEMVRESPPLPERDDSPPPLRRANNNVQWRDPSLKEVIEYLSSADKDKQLNASGYLQHLTYTDNQIKEETREYGGIPKLIALLRSDTPRIQKNACACLKNLSFGKENDANKLAVMEADGVRLIAEVLRTTHDASVKEEAAAALWNLSSADMLKPVILESATEILSQQVIAPVLAVGTSDPTRHFGSTLFKNSTGVLRNVSAASQQARRRLRDIPNLIEALVHFLTHAIQKSQVDSPTVENAVCLLRNLSYRIQEVVDPNYDPAAAHSSSSKNMKHVASPKPEKKKKDKEKKKDKNPKNIVTGPSVLWQPHVVKLYLKLLQDSSNIETLEASAGAIQNLAACQFPPSAEVRAAVRVEKGLPVLVELIRLPEDFVVCAVATALRNLAIDPRNRELIGKYALRDFLDKLPEPGSPRRSAISDQTIGAVLGILFEIVRSSAAYTKDVHELKGTDKLRALSRSYPTYSHRVCKYASQVLYVMWQHKELHDGFKRSGLKEADFYSGTARRGDSSTLARPISSQGRERPSMHQLDETLSSGGGYGTMESNNRAGTLRPASATSQTIQRRYDQVPRDGPVYSSVQKPSPRGGGGGGNIDDSWV", "soluble on expression in E. coli": "not soluble"}, {"sequence": "MISVNDFRTGLTISVDNALWQVLDFQHVKPGKGAAFVRSKLRNLRTGSVQEKTFRAGEKVEKAHIENRRMQYLYASGEAHVFMDNGTYEQIELGEKQIERELKFLKENMEVAIMTYQGEVLGVELPNTVELQVTETEPGIKGDTASNVTKPATLETGLVVQVPIFINEGEMLIINTGEGKYVSRA", "soluble on expression in E. coli": "not soluble"}, {"sequence": "MITIKFDLNRYSCSWGAGGAFGGNRGLRPIPPEKGIFPLDHLHECDAVFFNKRFFL", "soluble on expression in E. coli": "not soluble"}, {"sequence": "MITQHLIPDFIAKMTGSTEVQKSAGMKKSSSSQFKDTLDLAVEKSYAWQSGTKSYEYAMDIKDRPYQRLQNKNILDSAETKERRPDRTKPFNKASNQITSRASDKAERTASPEEENIEGENDRKLKGKAMEKALAEVLGISVEELEKLMAQLGINFENADGETGIQEAADKISAYLGLNQDEKMALAEMMSLVQKQVEQAFKDVQSAYDAARYDMKDENEAYGVELFHAETETAVEDTSALRNDLDVSKVSQEVKNKLDEETDGFLKQIAAKVVEVVQKDESTAGLKTVSVNGENIEEIGLKTDVEDIGNVREAKYSSDEKDSADNSGNAGSETSSMASRGVEAESAAKNSNNIQFEAVSNLTVQRATGQAEPDKTRNIIPVTNKEIVEQVVEKAKVVLSGDKSEMVIDLKPEHLGKLELKIVTERGMVVAKFVAENEQVKAALESNMNMLKESLEKQGFLVEGFSVTVGDNKRRENSRDKTNQGTANQRISGEKLQVSDMTGVERMQRIHENIDPYSYGSSSIDLTA", "soluble on expression in E. coli": "soluble"}, {"sequence": "MITTPLVHVASVEKGRSYEDFQKVYNAIALKLREDDEYDNYIGYGPVLVRLAWHISGTWDKHDNTGGSYGGTYRFKKEFNDPSNAGLQNGFKFLEPIHKEFPWISSGDLFSLGGVTAVQEMQGPKIPWRCGRVDTPEDTTPDNGRLPDADKDAGYVRTFFQRLNMNDREVVALMGAHALGKTHLKNSGYEGPWGAANNVFTNEFYLNLLNEDWKLEKNDANNEQWDSKSGYMMLPTDYSLIQDPKYLSIVKEYANDQDKFFKDFSKAFEKLLENGITFPKDAPSPFIFKTLEEQGL", "soluble on expression in E. coli": "soluble"}, {"sequence": "MITYKNILIAVDGSHEAEWAFNRAVGVAKRNDAKLTIVNVIDSRTYSSYEVYDAQFTEKSKHFAEELLNGYKEVATNAGVKDVETRLEFGSPKSIIPKKLAHEINADLIMSGTSGLNAVERFIVGSVSESIVRHAPCDVLVVRTEELPADFQPQVATTQLREKYQN", "soluble on expression in E. coli": "not soluble"}, {"sequence": "MIVPEVSSSSTNEANVPESSAGKYTYKDIRDDRVLTYFDLRRGESKTFTVRLQATYAGNFILPAIQCEAMYDAAVQARTKAGRTTVSR", "soluble on expression in E. coli": "not soluble"}]}]}
